Molecular target: PE-labeled HLA-A*02:01/Taxp11-19 ([…]) tetramer (human; HTLV-1)
Experiment: tetramer staining of TCR-transduced human PBMCs, flow cytometry

B1: TCR2-2 (TCR, V domains shown)
V domain 1: GAVVSQHPSRVICKSGTSVKIECRSLDFQATTMFWYRQFPKKSLMLMATSNEGSKATYEQGVEKDKFLINHASLTLSTLTVTSAHPEDSSFYICSARAGGDTFGSGTRLTVVE
V domain 2: AQSVTQLDSHVSVSEGTPVLLRCNYSSSYSPSLFWYVQHPNKGLQLLLKYTSAATLVKGINGFEAEFKKSETSFHLTKPSAHMSDAAEYFCVVSVNDYKLSFGAGTTVTVRA
notes: also called TCR having feature (D)
percent TCR-positive (tetramer-positive) CD4-positive cells among transfected cells: ≥ 5%
percent TCR-positive (tetramer-positive) CD8-positive cells among transfected cells: ≥ 10%

B2: TCR5-2 (TCR, V domains shown)
V domain 1: GAVVSQHPSRVICKSGTSVKIECRSLDFQATTMFWYRQFPKKSLMLMATSNEGSKATYEQGVEKDKFLINHASLTLSTLTVTSAHPEDSSFYICSAKASEQYFGPGTRLTVTE
V domain 2: SQQGEEDPQALSIQEGENATMNCSYKTSINNLQWYRQNSGRGLVHLILIRSNEREKHSGRLRVTLDTSKKSSSLLITASRAADTASYFCAADNYGQNFVFGPGTRLSVLP
notes: also called TCR having feature (F)
percent TCR-positive (tetramer-positive) CD4-positive cells among transfected cells: ≥ 5%
percent TCR-positive (tetramer-positive) CD8-positive cells among transfected cells: ≥ 10%

B3: TCR5-3 (TCR, V domains shown)
V domain 1: GVTQTPKFRVLKTGQSMTLLCAQDMNHEYMYWYRQDPGMGLRLIHYSVGEGTTAKGEVPDGYNVSRLKKQNFLLGLESAAPSQTSVYFCASSYSRDRGWSEAFFGQGTRLTVVE
V domain 2: AQKVTQAQTEISVVEKEDVTLDCVYETRDTTYYLFWYKQPPSGELVFLIRRNSFDEQNEISGRYSWNFQKSTSSFNFTITASQVVDSAVYFCALNVMNRDDKIIFGKGTRLHILP
notes: also called TCR having feature (G)
percent TCR-positive (tetramer-positive) CD4-positive cells among transfected cells: ≥ 5%
percent TCR-positive (tetramer-positive) CD8-positive cells among transfected cells: ≥ 10%

B4: TCR1-2 (TCR, V domains shown)
V domain 1: GAVVSQHPSRVICKSGTSVKIECRSLDFQATTMFWYRQFPKKSLMLMATSNEGSKATYEQGVEKDKFLINHASLTLSTLTVTSAHPEDSSFYICSARYGEVAFFGQGTRLTVVE
V domain 2: GENVEQHPSTLSVQEGDSAVIKCTYSDSASNYFPWYKQELGKGPQLIIDIRSNVGEKKDQRIAVTLNKTAKHFSLHITETQPEDSAVYFCAASRDNNDMRFGAGTRLTVKP
notes: also called TCR having feature (B)
percent TCR-positive (tetramer-positive) CD4-positive cells among transfected cells: ≥ 5%
percent TCR-positive (tetramer-positive) CD8-positive cells among transfected cells: ≥ 10%

B5: TCR2-1 (TCR, V domains shown)
V domain 1: EAQVTQNPRYLITVTGKKLTVTCSQNMNHEYMSWYRQDPGLGLRQIYYSMNVEVTDKGDVPEGYKVSRKEKRNFPLILESPSPNQTSLYFCASSPGLAGGVEQFFGPGTRLTVLE
V domain 2: RKEVEQDPGPFNVPEGATVAFNCTYSNSASQSFFWYRQDCRKEPKLLMSVYSSGNEDGRFTAQLNRASQYISLLIRDSKLSDSATYLCVVNIGFGNVLHCGSGTQVIVLP
notes: also called TCR having feature (C)
percent TCR-positive (tetramer-positive) CD4-positive cells among transfected cells: ≥ 5%
percent TCR-positive (tetramer-positive) CD8-positive cells among transfected cells: ≥ 10%

Source: patent US20200360435A1 (MIE UNIVERSITY, published 2020)
